From patent publication CN114057881A (HANGZHOU XIANZHI BIOTECHNOLOGY CO LTD, dated 2022) come the findings set out here.

This test has as its target T1, 牛血清白蛋白 (bovine, UniProt P02769 25-607).
T1 construct: Carrier protein control, without ketamine, in the ELISA screen; also called BSA
Nature of the test: ELISA, BSA coated at 1 μg/mL, purified antibody, HRP secondary antibody, OD450. (ELISA stands for enzyme-linked immunosorbent assay.)

T1 sequence (P02769 25-607 limits assumed): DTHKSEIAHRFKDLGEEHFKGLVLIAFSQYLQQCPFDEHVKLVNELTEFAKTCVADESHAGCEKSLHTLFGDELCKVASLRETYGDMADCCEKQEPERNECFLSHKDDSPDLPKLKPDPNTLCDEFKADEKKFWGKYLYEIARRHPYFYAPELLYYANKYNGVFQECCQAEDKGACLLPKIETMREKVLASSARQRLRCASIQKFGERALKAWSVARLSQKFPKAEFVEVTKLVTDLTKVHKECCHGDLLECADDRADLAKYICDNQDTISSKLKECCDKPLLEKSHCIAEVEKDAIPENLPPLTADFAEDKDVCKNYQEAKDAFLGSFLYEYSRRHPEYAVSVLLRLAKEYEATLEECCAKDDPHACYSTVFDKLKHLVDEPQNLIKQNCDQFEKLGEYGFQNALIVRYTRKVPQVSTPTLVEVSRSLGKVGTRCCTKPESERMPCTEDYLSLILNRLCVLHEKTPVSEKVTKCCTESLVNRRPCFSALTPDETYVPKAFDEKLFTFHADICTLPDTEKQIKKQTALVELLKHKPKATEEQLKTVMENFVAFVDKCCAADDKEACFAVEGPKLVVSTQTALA

B1: 抗氯胺酮(KET)特异性抗体6B2 (antibody, V domains shown)
VH: EVQLQQSGAELLKPGASVKLSCTASGFNIKDTYIHWVKQRPEQGLEWIGRIDPANGHTYYDPQFQGKATLTADTSSNTAYLQLSSLTSEDSAIYYCARFGEDWGQGTLVTVSA
VL: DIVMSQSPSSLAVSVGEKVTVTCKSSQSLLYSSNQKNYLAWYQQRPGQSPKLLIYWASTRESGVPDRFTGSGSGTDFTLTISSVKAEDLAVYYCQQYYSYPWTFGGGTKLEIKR
notes: also called 6B2单抗
B1: the binding result was “no binding”.

B2: 抗氯胺酮(KET)特异性抗体4A1 (antibody, V domains shown)
VH: EVRLEESGGGLVQPGGSMKLSCVASGFTFSNYWMNWVRQSPEKGLEWVDEIKLKSNNYETHCVESVKGRFTISRDDSKSSVYLQMNNLRAEDTGIYYCARRGYGTYYAMDYWGQGTSVIVSS
VL: DVQITQSPSYLAASPGETITINCRASKSIRKYLAWYQEKPGKTNKLLIYSGSTLRSGTPSRFSGSGSGTDFTLTISSLEPEDFAMYYCQQHNEYPYTFGGGTKLEIKR
notes: also called 4A1单抗
Turning to B2, the binding result is “no binding”.
